We go through one molecule from patent publication US20190085033A1 (published 2019).

The test addresses BG505-gp120 10MUT-KO (HIV-1, strain BG505). Nature of the test: SPR, monomeric gp120. Background: SPR reads the build-up and loss of mass on a sensor chip optically.

B1: PGT121 (antibody, V domains shown)
VH: QMQLQESGPGLVKPSETLSLTCSVSGASISDSYWSWIRRSPGKGLEWIGYVHKSGDTNYSPSLKSRVNLSLDTSKNQVSLSLVAATAADSGKYYCARTLHGRRIYGIVAFNEWFTYFYMDVWGNGTQVTVSS
VL: SDISVAPGETARISCGEKSLGSRAVQWYQHRAGQAPSLIIYNNQDRPSGIPERFSGSPDSPFGTTATLTITSVEAGDEADYYCHIWDSRVPTKWVFGGGTTLTVL
notes: also called mature PGT121
Regarding B1, the Kd came out at 435 nM.

One may read the Kd as the equilibrium constant for the complex coming apart. Read a high Kd as lower affinity.
